US20070122903A1, “AMNIOTIC FLUID DERIVED CELLS” (priority 2005, published 2007)

B1: BMP4: bone morphogenic protein, growth factor added to the differentiation medium (protein, UniProt P12644 293-408, looked up)
Bone morphogenetic protein 4: SPKHHSQRARKKNKNCRRHSLYVDFSDVGWNDWIVAPPGYQAFYCHGDCPFPLADHLNSTNHAIVQTLVNSVNSSIPKACCVPTELSAISMLYLDEYDKVVLKNYQEMVVEGCGCR
B2: Activin A: growth factor added to the differentiation medium (protein, UniProt P08476 311-426, looked up)
Inhibin beta A chain: GLECDGKVNICCKKQFFVSFKDIGWNDWIIAPSGYHANYCEGECPSHIAGTSGSSLSFHSTVINHYRMRGHSPFANLKSCCVPTKLRPMSMLYYDDGQNIIKKDIQNMIVEECGCS
modifications: Inhibin beta A chain
notes: growth factor added to the differentiation medium
B3: FGF4: growth factor added to the differentiation medium (protein, UniProt P08620 31-206, looked up)
Fibroblast growth factor 4: APTAPNGTLEAELERRWESLVALSLARLPVAAQPKEAAVQSGAGDYLLGIKRLRRLYCNVGIGFHLQALPDGRIGGAHADTRDSLLELSPVERGVVSIFGVASRFFVAMSSKGKLYGSPFFTDECTFKEILLPNNYNAYESYKYPGMFIALSKNGKTKKGNRVSPTMKVTHFLPRL

System: cell line AFCA007 Clone A (AF-I)
Assay: Differentiation of cells into multiple endocrine lineages (collagen type I/matrigel transwell culture with growth factors)
Assay type: cell-based, human
Conditions: 14 days; for expression of HNF-3 beta: DMEM + 5% FBS
Method: Cells from the cell line AFCA007 Clone A (AF-I) at passage 8 were embedded in collagen type I (Becton Dickinson, CA) with 1% growth-factor reduced matrigel matrix (Becton Dickinson), and seeded into 6-well transwell insert at 5×10^5 cells per well. The bottom well was seeded with human aortic endothelial cells passage 6 (Cambrex. MD). Cells were cultured with DMEM medium supplemented with 5% FBS and growth factors, which includes Cyclopamine, bFGF, EGF, BMP4-7, Activin A, Exendin 4, FGF4, all-trans retinoic acid and γ-secretase inhibitors for 14 days. Cultures were fed every other day. […] Treatment of cells with BMPs at high concentration, 50 ng/ml, also up-regualted the GATA4 expression.

| Molecule | expression of HNF-3 beta | PDX-1 expression (50 ng/ml) |
| --- | --- | --- |
| B1 | up-regulated |  |
| B2 | up-regulated |  |
| B3 |  | up-regulation |
